Like-named read-outs stand apart in the source and are kept apart here.
Tests used:
[1] = biological target: T1, full-length mouse CD40 expressed on CHO-K cells (mouse, UniProt P27512 20-289); test: flow cytometry on CHO-K-mouseCD40 cells, FITC anti-human IgG Fc secondary antibody
T1 construct: whole, on cells; also called CHO-K-mouseCD40 cells; mouse CD40 antigen
Method: The cross-reactivity of the affinity variant candidate antibody prepared in example 4.3 to mouse CD40 was tested using artificially constructed CHO-K cells expressing full-length mouse CD40 (Uniprot #P27512) (CHO-K-mouseCD40 cells). The CHO-K cells expressing mouse CD40 were seeded into a 96-well plate at 1.0×10⁵ cells/well. 100 μL of diluted affinity variant candidate antibody and the control antibody (APX005) were added to the 96-well plate, respectively. […] The cells were then washed and tested by flow cytometry.

[2] = biological target: T2, P17-His protein (human CD40 antigen) (human, UniProt P25942 21-193, limits assumed); test: BLI (Fortebio Octet RED96), antibody on Protein A sensor, P17-His 5-40 nM
T2 construct: also called human CD40 antigen (P17-His)
Method: In this example, the affinity of C8 parent antibody (C8-WT) and affinity variant antibody for human CD40 antigen (P17-His) was detected using an Fortebio Octet RED96 instrument.
Material preparation: 1 g of BSA and 500 μL of Tween 20 were added to 1000 mL of 1×PBS and mixed uniformly. The mixture was filtered, and then subpackaged and stored. 0.1 mL of glycine solution (0.1 M, pH 2.0) was pipetted, 0.9 mL of ultrapure water was added, and the mixture was mixed uniformly. The antibodies were diluted to 10 μg/mL with a KB buffer, and the antigens were diluted with a KB buffer to serial concentration gradients, i.e., 40 nM, 20 nM, 10 nM, 5 nM and 0 nM.
Experiment procedure: The sample plate (GreinierBio, PN655209) was tested after a sensor (Protein A sensor) was pre-wetted in the dark for at least 10 min, and after confirming the accuracy, the test was performed according to the preset programs. KB buffer was added at 200 μL/well to the wells of columns 1, 10 and 12 of sample plate 1; the glycine solution (0.01 M, pH 2.0) was added to the wells of column 11; the prepared sample solution was added to the wells of columns 2-8 (5 replicate wells for one sample); and P17-His was sequentially added to the wells of column 9 in a descending order of the concentration.

[3] = biological target: T3, human CD40 expressed on the cell surface (human, UniProt P25942 21-277); test: flow cytometry on CHO-K-huCD40 cells, APC anti-human IgG secondary antibody
T3 construct: whole, on cells; Used for transfected CHO-K cells, for transfected Jurkat reporter cells (Met1-Gln277) and for the natural CD40 on Ramos cells and iDC; also called CHO-K-huCD40 cells; CHO cells expressing CD40
Method: (§1) 100 μL of diluted anti-CD40 candidate antibody prepared in example 4.3 was added to the 96-well plate. After incubation at 4° C. for 30 min, the cells were washed 5 times with a FACS buffer (PBS+5% FBS+2% BSA), added with 100 μL of APC-labeled anti-human IgG secondary antibody, and then incubated at 4° C. for 30 min. The cells were then washed and tested by flow cytometry.

[4] = biological target: T3, human CD40 expressed on the cell surface; test: as above; remark: listed apart in the source
Method: as §1

[5] = biological target: T3, human CD40 expressed on the cell surface; test: cell-based or functional assay

T3 sequence (P25942 21-277): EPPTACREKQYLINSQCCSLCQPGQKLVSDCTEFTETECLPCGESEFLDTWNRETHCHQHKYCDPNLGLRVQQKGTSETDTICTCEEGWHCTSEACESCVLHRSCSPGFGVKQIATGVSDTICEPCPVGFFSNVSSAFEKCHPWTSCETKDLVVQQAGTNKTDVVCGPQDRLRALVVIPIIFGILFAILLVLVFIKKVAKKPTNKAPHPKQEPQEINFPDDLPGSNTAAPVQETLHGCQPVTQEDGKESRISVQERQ
T2 sequence (P25942 other isoform, or with tags, fused parts or gaps limits assumed): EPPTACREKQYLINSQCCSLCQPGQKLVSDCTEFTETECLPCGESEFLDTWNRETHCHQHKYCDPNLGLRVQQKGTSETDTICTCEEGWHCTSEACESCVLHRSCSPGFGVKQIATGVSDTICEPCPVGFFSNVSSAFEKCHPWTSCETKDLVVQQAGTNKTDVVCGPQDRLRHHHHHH
T1 sequence (P27512 20-289): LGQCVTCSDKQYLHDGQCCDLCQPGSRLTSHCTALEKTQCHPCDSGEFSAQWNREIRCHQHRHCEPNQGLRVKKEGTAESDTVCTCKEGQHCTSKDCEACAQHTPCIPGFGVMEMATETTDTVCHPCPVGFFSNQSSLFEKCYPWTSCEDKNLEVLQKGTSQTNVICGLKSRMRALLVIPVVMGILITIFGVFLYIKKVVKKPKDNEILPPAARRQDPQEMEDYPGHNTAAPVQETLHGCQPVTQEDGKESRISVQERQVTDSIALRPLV

Row | Binder | binding result [1] | Kd [2] | koff [2] | kon [2] | EC50 (read off the curve) [3] | EC50 (read off the curve) [4] | CD95 expression on Ramos cells without crosslinking agent (FACS) [5]
1 | C8-8 antibody (antibody, V domains shown) VH: EVQLLESGGGLVRPGGSLRLSCAASGFTFGSYEMNWVRQAPGKGLEWVSYISSSGETTDYADSVKGRFTVSRDNSKNLLYLQMNSLRAEDTAVYYCARDVFFFDSSGPPGAYGMDVWGQGTMVTVSS VL: DIQLTQSPSSLTASVGDRVTITCRSSQGIRSSLAWYQQKPGKPPKLLIYGASSLEGGVPSRFSGSGSGTDFTLTISSLQPEDFATYYCQQLNSFPSTFGQGTKLEIK | binds | 10.3 nM | 0.011 s⁻¹ | 1.07e+06 M⁻¹ s⁻¹ | ~0.7 µg/mL |  | 
2 | C8-11 antibody (antibody, V domains shown) VH: EVQLLESGGGLVRPGGSLRLSCAASGFTPGSYEMNWVRQAPGKGLEWVSYISSAGETTDYADSVKGRFTVSRDNSKNLLYLQMNSLRAEDTAVYYCARDVFFFDSSGDNGAYGMDVWGQGTMVTVSS VL: DIQLTQSPSSLTASVGDRVTITCRSSQGIRSSLAWYQQKPGKPPKLLIYGASSLLGGVPSRFSGSGSGTDFTLTISSLQPEDFATYYCQQLNSFPSTFGQGTKLEIK | binds | 9.24 nM | 0.0148 s⁻¹ | 1.6e+06 M⁻¹ s⁻¹ | ~2 µg/mL |  | ~10 times weaker than APX005
3 | C8-7 antibody (antibody, V domains shown) VH: EVQLLESGGGLVRPGGSLRLSCAASGFTFGSYEMNWVRQAPGKGLEWVSYISSSGETTDYADSVKGRFTVSRDNSKNLLYLQMNSLRAEDTAVYYCARDVFFFDSSGDNHAYGMDVWGQGTMVTVSS VL: DIQLTQSPSSLTASVGDRVTITCRSSQGIRSSLAWYQQKPGKPPKLLIYGASSLEGGVPSRFSGSGSGTDFTLTISSLQPEDFATYYCQQLNSFPSTFGQGTKLEIK | binds | 12.4 nM | 0.0111 s⁻¹ | 895000 M⁻¹ s⁻¹ | ~0.9 µg/mL |  | 
4 | C8-2 antibody (antibody, V domains shown) VH: EVQLLESGGGLVRPGGSLRLSCAASGFTFGSYEMNWVRQAPGKGLEWVSYISSSGETTDYADSVKGRFTVSRDNSKNLLYLQMNSLRAEDTAVYYCARDVFFFSPSGDNGAYGMDVWGQGTMVTVSS VL: DIQLTQSPSSLTASVGDRVTITCRSSQGIRSSLAWYQQKPGKPPKLLIYGASSLEGGVPSRFSGSGSGTDFTLTISSLQPEDFATYYCQQLNSFPSTFGQGTKLEIK | binds | 11.9 nM | 0.0111 s⁻¹ | 932000 M⁻¹ s⁻¹ |  | ~0.8 µg/mL | ~10 times weaker than APX005
5 | C8-9 antibody (antibody, V domains shown) VH: EVQLLESGGGLVRPGGSLRLSCAASGFTFGSYEMNWVRQAPGKGLEWVSYISSSGETTDYADSVKGRFTVSRDNSKNLLYLQMNSLRAEDTAVYYCARDVFFFDSSRPNGAYGMDVWGQGTMVTVSS VL: DIQLTQSPSSLTASVGDRVTITCRSSQGIRSSLAWYQQKPGKPPKLLIYGASSLEGGVPSRFSGSGSGTDFTLTISSLQPEDFATYYCQQLNSFPSTFGQGTKLEIK | binds | 9.27 nM | 0.0112 s⁻¹ | 1.21e+06 M⁻¹ s⁻¹ | ~0.9 µg/mL |  | ~10 times weaker than APX005
6 | C8-10 antibody (antibody, V domains shown) VH: EVQLLESGGGLVRPGGSLRLSCAASGFTFGSYEMNWVRQAPGKGLEWVSYISSSGETTDYADSVKGRFTVSRDNSKNLLYLQMNSLRAEDTAVYYCARDVFFFDSSGFPGAYGMDVWGQGTMVTVSS VL: DIQLTQSPSSLTASVGDRVTITCRSSQGIRSSLAWYQQKPGKPPKLLIYGASSLEGGVPSRFSGSGSGTDFTLTISSLQPEDFATYYCQQLNSFPSTFGQGTKLEIK | binds | 6.82 nM | 0.00847 s⁻¹ | 1.24e+06 M⁻¹ s⁻¹ | ~0.9 µg/mL |  | ~10 times weaker than APX005
7 | C8-6 antibody (antibody, V domains shown) VH: EVQLLESGGGLVRPGGSLRLSCAASGFTFGSYEMNWVRQAPGKGLEWVSYISSSGETTDYADSVKGRFTVSRDNSKNLLYLQMNSLRAEDTAVYYCARDVFFFDSSGSPGAYGMDVWGQGTMVTVSS VL: DIQLTQSPSSLTASVGDRVTITCRSSQGIRSSLAWYQQKPGKPPKLLIYGASSLEGGVPSRFSGSGSGTDFTLTISSLQPEDFATYYCQQLNSFPSTFGQGTKLEIK | binds | 9.04 nM | 0.00984 s⁻¹ | 1.09e+06 M⁻¹ s⁻¹ |  | ~0.8 µg/mL | ~10 times weaker than APX005
8 | APX005M (antibody, V domains shown) VH: QVQLVESGGGVVQPGRSLRLSCAASGFSFSSTYVCWVRQAPGKGLEWIACIYTGDGTNYSASWAKGRFTISKDSSKNTVYLQMNSLRAEDTAVYFCARPDITYGFAINFWGPGTLVTVSS VL: DIQMTQSPSSLSASVGDRVTIKCQASQSISSRLAWYQQKPGKPPKLLIYRASTLASGVPSRFSGSGSGTDFTLTISSLQPEDVATYYCQCTGYGISWPIGGGTKVEIK |  | 6.3 nM | 0.0124 s⁻¹ | 1.98e+06 M⁻¹ s⁻¹ | ~0.8 µg/mL | ~0.7 µg/mL | 

More lines, now with the values ahead:

Row | binding result [1] | Kd [2] | koff [2] | kon [2] | EC50 (read off the curve) [3] | EC50 (read off the curve) [4] | CD95 expression on Ramos cells without crosslinking agent (FACS) [5] | Binder
9 | no binding (tested: 20 µg/mL) | 5.34 nM | 0.00725 s⁻¹ | 1.36e+06 M⁻¹ s⁻¹ |  | ~0.8 µg/mL |  | C8-4 antibody (antibody, V domains shown) VH: EVQLLESGGGLVRPGGSLRLSCAASGFTFGSYEMNWVRQAPGKGLEWVSYISSSGETTDYADSVKGRFTVSRDNSKNLLYLQMNSLRAEDTAVYYCARDVFFFDSSGPRGAYGMDVWGQGTMVTVSS VL: DIQLTQSPSSLTASVGDRVTITCRSSQGIRSSLAWYQQKPGKPPKLLIYGASSLEGGVPSRFSGSGSGTDFTLTISSLQPEDFATYYCQQLNSFPSTFGQGTKLEIK
10 | no binding (tested: 20 µg/mL) | 8.23 nM | 0.00818 s⁻¹ | 994000 M⁻¹ s⁻¹ |  | ~0.8 µg/mL |  | C8-5 antibody (antibody, V domains shown) VH: EVQLLESGGGLVRPGGSLRLSCAASGFTFGSYEMDWVRQAPGKGLEWVSYISSSGETTDYADSVKPRFTVSRDNSKNLLYLQMNSLRAEDTAVYYCARDVFFFDSSGDNGAYGMDVWGQGTMVTVSS VL: DIQLTQSPSSLTASVGDRVTITCRSSQGIRSSLAWYQQKPGKPPKLLIYGGSSLEGGVPSRFSGSGSGTDFTLTISSLQPEDFATYYCQQLNSFPSTFGQGTKLEIK
11 | binds | 12.7 nM | 0.0148 s⁻¹ | 1.16e+06 M⁻¹ s⁻¹ |  | ~0.8 µg/mL |  | C8-1 antibody (antibody, V domains shown) VH: EVQLLESGGGLVRPGGSLRLSCAASGFTFGSYEMNWVRQAPGKGLEWVSYISSSGETTDYADSVKGRFTVSRDNSKNLLYLQMNSLRAEDTAVYYCARDVFFFDSSGDNGAYGMDVWGQGTMVTVSS VL: DIQLTQSPSSLTASVGDRVTITCRSSQGIRSSLAWYQQKPGKPPKLLIYGASSLEGGVPSRFSGSGSGTDFTLTISSLQPEDFATYYCQQLASFPSTFGQGTKLEIK
12 | no binding (tested: 20 µg/mL) | 4.51 nM | 0.0111 s⁻¹ | 2.46e+06 M⁻¹ s⁻¹ |  | ~0.8 µg/mL |  | C8-3 antibody (antibody, V domains shown) VH: EVQLLESGGGLVRPGGSLRLSCAASGFTAGSYEMNWVRQAPGKGLEWVSYISSSGETTDYADSVKGRFTVSRDNSKNLLYLQMNSLRAEDTAVYYCARDVFFFDSSGDNGAYGMDVWGQGTMVTVSS VL: DIQLTQSPSSLTASVGDRVTITCRSSQGIRSSLAWYQQKPGKPPKLLIYGASSLEVGVPSRFSGSGSGTDFTLTISSLQPEDFATYYCQQLNSFPSTFGQGTKLEIK

Reference: patent US20240218071A1 (ANHUI BIOX VISION BIOLOGICAL TECHNOLOGY, published 2024)
